Laboratory results: patent US20220267421A1 (INVOX PHARMA, published 2022)

T1: cynomolgus MSLN-His-Avi (cynomolgus, single biotin (BirA) in the biotinylated form)
T1 construct: Monomeric, made in HEK293-6E; also called cMSLN-His-Avi; cyno MSLN-His-Avi
T1 chain: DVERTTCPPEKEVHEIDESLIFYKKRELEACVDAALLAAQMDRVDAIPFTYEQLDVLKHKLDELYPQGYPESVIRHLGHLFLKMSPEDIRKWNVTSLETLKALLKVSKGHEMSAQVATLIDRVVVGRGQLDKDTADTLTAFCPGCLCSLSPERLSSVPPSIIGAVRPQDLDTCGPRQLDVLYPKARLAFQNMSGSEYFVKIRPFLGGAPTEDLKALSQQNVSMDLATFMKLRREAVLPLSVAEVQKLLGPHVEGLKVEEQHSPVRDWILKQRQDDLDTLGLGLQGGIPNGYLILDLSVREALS

B1: FS22-053-008-AA/FS28-024 mAb^2 (bispecific antibody, human IgG1, kappa, L234A L235A, V domains shown)
VH: EVQLLESGGGLVQPGGSLRLSCAASGFTLSYSSMSWVRQAPGKGLEWVSFITPSTGYTHYADSVKGRFTISRDNSKNTLYLQMNSLRAEDTAVYYCARRALTFDYWGQGTLVTVSS
VL: EIVLTQSPGTLSLSPGERATLSCRASQSVSSSYLAWYQQKPGQAPRLLIYGASSRATGIPDRFSGSGSGTDFTLTISRLEPEDFAVYYCQQASSYPLTFGQGTKVEIKR
notes: also called FS28-024 (in FS22-053-008-AA mAb^2 format); FS28-024 (in CD137 mAb2 format)
B2: FS22-172-003-AA/FS28-256-271 mAb^2 (bispecific antibody, human IgG1, kappa, L234A L235A)
heavy: EVQLLESGGGLVQPGGSLRLSCAASGFTFTHTYMSWVRQAPGKGLEWVSAISPTYSTTNYADSVKGRFTISRDNNKNTLYLQMNSLRAEDTAVYYCARYNAYHAALDYWGQGTLVTVSSASTKGPSVFPLAPSSKSTSGGTAALGCLVKDYFPEPVTVSWNSGALTSGVHTFPAVLQSSGLYSLSSVVTVPSSSLGTQTYICNVNHKPSNTKVDKKVEPKSCDKTHTCPPCPAPEAAGGPSVFLFPPKPKDTLMISRTPEVTCVVVDVSHEDPEVKFNWYVDGVEVHNAKTKPREEQYNSTYRVVSVLTVLHQDWLNGKEYKCKVSNKALPAPIEKTISKAKGQPREPQVYTLPPSRDELPYIIPPYNQVSLTCLVKGFYPSDIAVEWESNGQPENNYKTTPPVLDSDGSFFLYSKLTVGADRWLEGNVFSCSVMHEALHNHYTQKSLSLSPG
light: EIVLTQSPGTLSLSPGERATLSCRASQSVSSSYLAWYQQKPGQAPRLLIYGASSRATGIPDRFSGSGSGTDFTLTISRLEPEDFAVYYCQQTVPYPYTFGQGTKVEIKRTVAAPSVFIFPPSDEQLKSGTASVVCLLNNFYPREAKVQWKVDNALQSGNSQESVTEQDSKDSTYSLSSTLTLSKADYEKHKVYACEVTHQGLSSPVTKSFNRGEC

Assays:
[1] = biological target: T1, cynomolgus MSLN-His-Avi; assay: SPR (see Table 4)
[2] = biological target: T2, human MSLN-His-Avi (human, UniProt Q13421 296-598, single biotin (BirA) in the biotinylated form); assay: ratio of the two SPR KD
T2 construct: Monomeric, made in HEK293-6E; Used both immobilised and in solution; also called hMSLN-His-Avi; biotinylated hMSLN-His-Avi
Outline: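 mAb² clones were tested on two SPR set-ups. In the first, human MSLN-His-Avi was amine-coupled to CM5 (~200 RU) and ~50 nM antibody was injected. In the second, clones were captured on Protein G (~100 RU) and human or cyno MSLN (1000-0.051 nM, 3-fold) was flowed in HBS-EP with 900 mM […] for 5 min association/5 min dissociation. The value is the ratio of the two KD.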

[3] = biological target: T1, cynomolgus MSLN-His-Avi; assay: SPR (Biacore), mAb^2 captured on Protein G, MSLN in solution injected
[4] = biological target: T2, human MSLN-His-Avi; assay: as above
[5] = biological target: T2, human MSLN-His-Avi; assay: SPR (Biacore), MSLN immobilised, mAb^2 injected
Outline: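 Human MSLN-His-Avi amine-coupled to CM5 chip at about 200 RU, blank reference cell subtracted. Anti-MSLN mAb² (supernatant or purified) at about 50 nM in HBS-EP+ injected 2.5 min at 30 μl/min, 2.5 min dissociation; 10 mM glycine pH 1.5 regeneration.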

[6] = biological target: T3, cell surface human mesothelin (MSLN) (human, UniProt Q13421 296-598); assay: flow cytometry, NCI-H226 cells
T3 construct: whole, on cells; also called cell surface MSLN
Protocol: (§1) Cells were centrifuged at 1200 rpm for 3 min and resuspended in ice cold FACS buffer made up of DPBS (Life Technologies, 14190169) and 1% BSA (Sigma-Aldrich, A7906) at 2×10⁶ cells/ml and 50 μl per well was seeded in a 96-well V-bottom plate (Costar, 3894). All mAbs tested were diluted in FACS buffer in 120 μl at a concentration range of 0.01-200 nM (4-fold dilutions). The NCI-H226 cells were then centrifuged, supernatant removed and cells resuspended in 100 μl of each mAb dilution and incubated at 4° C. for 45 min. Cells were washed twice by centrifugation with 150 μl FACS buffer, resuspended in 100 μl containing goat anti-human IgG (γ-chain specific) F(ab′)2 fragment-R-Phycoerythrin antibody (Sigma, P8047) diluted 1:1000 in FACS buffer and incubated at 4° C. for 45 min. The cells were washed once with 150 μl FACS buffer and then with 150 μl DPBS, resuspended in 150 μl DPBS containing DAPI (Biotium, 40043) at 1:10.000 and read on the BDCantoll or iQue (Intellicyt). Data was analysed using FlowJo v10 to determine the signal geometric mean for PE for live cells in each well.
(§2) Cell binding assays using OVCAR-3 cells were performed similarly to the assays described in section 2.4. The effect of the presence of soluble MSLN was tested by pre-incubating the antibodies in the presence or absence of soluble MSLN before mixing with cells and determining if the pre-incubation affected binding to MSLN on the cell surface. […] 60 μl from each well was then added to either FACS buffer alone or to FACS buffer containing 60 μl of 40 nM recombinant hMSLN (R&D systems, 3265-MS-050) (to give a final concentration of 20 nM hMSLN) and pre-incubated at room temperature for 1 hour before 100 μl was added to the cells. Bound antibody was detected using goat anti-human anti-Fcγ Alexa-Fluor 488 (Jackson Immunoresearch, 109-546-098).
(§3) The method used was exactly as described in section 3.1.4.

[7] = biological target: T3, cell surface human mesothelin (MSLN); assay: flow cytometry, NCI-H226 cells + 20 nM soluble MSLN
Protocol: as §1, §2, §3

[8] = biological target: T1, cynomolgus MSLN-His-Avi; assay: SPR steady-state analysis, cMSLN-His-Avi coated at about 50 RU
Protocol: The association time was 1000 sec to steady state and the dissociation time was 30 sec. Running buffer was HBS-EP (GE Healthcare BR100188). Flow cells were regenerated by injecting Glycine-HCl pH1.5 at a flow rate of 30 μl/min for 30 seconds. Data were analysed by double referencing against a flow cell which was intentionally left blank (no antigen coating). Steady state affinity model was used to analyse kinetic data using the BiaEvaluation software version 3.2.

T3 sequence (Q13421 other isoform, or with tags, fused parts or gaps limits assumed): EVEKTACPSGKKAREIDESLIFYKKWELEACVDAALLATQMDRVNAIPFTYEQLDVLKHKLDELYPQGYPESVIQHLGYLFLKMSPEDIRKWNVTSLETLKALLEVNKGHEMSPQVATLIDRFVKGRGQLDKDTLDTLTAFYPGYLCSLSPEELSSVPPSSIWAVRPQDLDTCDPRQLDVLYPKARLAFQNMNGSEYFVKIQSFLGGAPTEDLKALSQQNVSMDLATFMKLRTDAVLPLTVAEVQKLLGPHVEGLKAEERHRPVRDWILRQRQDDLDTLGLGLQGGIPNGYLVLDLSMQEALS
T2 sequence (Q13421 other isoform, or with tags, fused parts or gaps): as the sequence (Q13421 other isoform, or with tags, fused parts or gaps limits assumed) above

Binder	fold lower affinity for cyno MSLN than for human MSLN [1] [fold]	Ratio of KD in solution/immobilised for human MSLN-His-Avi [2]	Kd [3] [nM]	Kd [4] [nM]	Kd [5] [nM]	EC50 [6] [nM]	Emax (MFI) [6] [MFI]	EC50 [7] [nM]	Emax (MFI) [7] [MFI]	fold difference of binding to cyno MSLN against human MSLN [8] [fold]
B1	~5	119	240	46.5	0.39	1.47	981000	5.04	1.02e+06	–
B2	–	–	–	–	–	–	–	–	–	≤ 3
